Target: T1, PNPase wild type (Escherichia coli, UniProt P05055 1-711)
T1 sequence: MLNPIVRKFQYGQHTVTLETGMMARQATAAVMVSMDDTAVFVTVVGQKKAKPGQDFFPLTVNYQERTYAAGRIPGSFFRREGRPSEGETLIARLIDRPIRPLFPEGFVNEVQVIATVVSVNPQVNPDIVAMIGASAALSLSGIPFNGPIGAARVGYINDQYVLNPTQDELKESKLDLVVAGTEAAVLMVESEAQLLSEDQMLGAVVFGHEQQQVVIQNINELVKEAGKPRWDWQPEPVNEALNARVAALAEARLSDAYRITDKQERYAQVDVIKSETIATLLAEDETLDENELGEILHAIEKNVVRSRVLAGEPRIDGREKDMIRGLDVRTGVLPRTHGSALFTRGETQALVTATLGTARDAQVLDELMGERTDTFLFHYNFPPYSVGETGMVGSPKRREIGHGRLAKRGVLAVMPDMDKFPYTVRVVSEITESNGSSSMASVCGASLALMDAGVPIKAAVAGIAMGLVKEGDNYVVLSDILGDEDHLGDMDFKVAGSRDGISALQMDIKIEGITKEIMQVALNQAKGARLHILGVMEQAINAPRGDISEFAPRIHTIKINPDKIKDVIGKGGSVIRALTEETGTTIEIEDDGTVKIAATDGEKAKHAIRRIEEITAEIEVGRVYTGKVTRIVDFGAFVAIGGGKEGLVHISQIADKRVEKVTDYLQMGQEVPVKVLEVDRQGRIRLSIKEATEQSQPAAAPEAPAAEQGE
Assay: EMSA; no divalent cation; efficiency similar to RNA01; 50 mM Tris-HCl pH 7.4, 50 mM NaCl, 0.5 mM DTT, 0.025% NP40, 10% glycerol, +/- 2 mM MgCl2 or MnCl2; 50 fmol probe in 10 µl; 20 min at 21 °C; native 5% PAGE at 4
Conditions: protein: recombinant; tags: His-tag; chain copies: 3; label: 5'-32P; single-stranded 20-mer

Binder: ACTGGACAAATACTCCGACG (ssDNA) [DNA02]
- binding result: binds

Reference: paper PMC5379764, “Polynucleotide phosphorylase is implicated in homologous recombination and DNA repair in Escherichia coli”
